A short description of this data set: soluble on expression in E. coli; label from the status in PepcDB or PDB records.
For “MEKIVYEQLKETLYYEKLPNGLDVYILPKQGFNKTFATSTTKYGSVDNTFVPLGKEEMIRVPDGIAHFLEHKLFEKEDHDAFQLFSKQGASANAFTSFTRTAYLFSCTSNVEQNLNTLLNFVQEPYFSEKTVEKEKGIIGQEIQMYQDNPDWRLYFGLIDSLFVKHPIKIDIAGTIESISKITKDLLYECYETFYHPSNMLMFVVGAIDPEKTMDLVHENQAKKDYKNQPEIVRSFEEEPDEVNEKKKIISMPVQTPKCLVGIKATNLKEKGEALLKQEIALTLLLDYLFGKSSVHYESLYNEGLIDDTFSYDYTEENNFGFAMVGGDTKQPDELEERLKSILLNTNYNQLDEAALERVKKKKIGGFLRSLNSPEYIANQFTRYAFNESSLFDALTVLESLTVQDLQEVAQLLLSEEKMSVCQVLPKK”, the “soluble on expression in E. coli” value is “not soluble”.

As for “MEKKHIYLFCSAGMSTSLLVSKMRAQAEKYEVPVIIEAFPETLAGEKGQNADVVLLGPQIAYMLPEIQRLLPNKPVEVIDSLLYGKVDGLGVLKAAVAAIKKAAAN”, the “soluble on expression in E. coli” value was “soluble”. With “MEKKTIVLGVIGSDCHAVGNKILDHAFTNAGFNVVNIGVLSPQEVFIKAAIETKADAILLSSLYGQGEIDCKGLRQKCDEAGLEGILLYVGGNIVVGKQHWPDVEKRFKDMGYDRVYAPGTPPEVGIADLKKDLNIE” the entry was “soluble”; with “MEKKVQIAVYENENFKRVAEIVKKKSIATVCEEALCPNIMECWGSGTATFMIMGSICTRGCRFCYVLKGKPSPLDDEEPKRVAEAVKEMELDYVVITSVDRDDLSDGGAQHFANVVKTVKELNPGIIVEVLTPDFRGNIDAVKKVIDAGVDVFAHNVETVRRLTPIVRDPRASYEQSLNVLKYAENVIKKSSILLGLGETWDEIVETMRDLRSVGVSILVLSQYMRPSRKQLEVKKRYTLEEFKELEEIAYSMGFSAVISLPLARTSYKAKEAYFRAIENAKNHS”, “not soluble”. For the sequence “MEKLGLEHVCGDLNTEVEHGFTCDLLSEVLGKAQPSTLWITVQSHVNIIAVATVVGIKGIVLCDGHEYEKDTVKKAEENGVVLLKSQENSFIVSGKVYELGLRLEHHHHHH”, the “soluble on expression in E. coli” value is “not soluble”.

Consider “MEKNEKNGVFSRVRSRWRSIFSKKANPVKLRDCNRLTFERILSDPNEQIGTIVAQATVEPITLPNGGGIALIQETTLYEEDYGLEDSSNFPIISETAQSLRRRMRRLSSGDLNVIRRMTEEIDFDLKNIIYDGNEITGETDADNGNDRACFKPGPDYPIDQQMLFLKQCIKKIDTRPPNMYYLTNGWSVDNFEALFKYMIRSGEDCSRDTLLRVEFRDCVVSLKSLYDFIEEYATFKGVKMHSDYVYAIVHSRNEKLERRLRGAIDSFMEIESKIRQARISYVSSFTINSPHTPNVSIIVKFCCLKPCNSDAKTKMRQISVQVDHVTGRSRMSLPDVRQHEGLVCECLGDFSLIRHRPTSVPVTKILDEHPPLIVDEEVRLKSSYQFNPVTGEPIPDDEQQQEQTEIEVNKKIKKPKIVPNQTLLGNEHDIFPRFSIFIGFYKASIEDPLEINDFVEMFPLILVLLEKAGIQELEDGDAPEKSVSKYPKKRSIVDGASSETCEDTQSVGSSESSEPRSPEFTEYSESEDTAADSETSDSESSSEDEKENMKSSIKELELIKDAPEDL”, for which the “soluble on expression in E. coli” value is “soluble”. As to “MEKNGYIDPYTTVMNYLSITPGKWEIKYNENIRGISGKEHRFDAVYRSQEGEIVTVMVVLRTEDLEKRLDDFKNGSKDVRAKRKFLIVCGEINSDMVSELKSENISILMLPGMFCSQVSSYNADAGSNDAPRSLPDGGIEESQRKRSRANIIMDLIRAINENSNQIPVTRLFYACNINHRMGRSIIEDLEHAGIVILRKTGPNRNVVELTRKGISLINDYEFIREILEK”, the “soluble on expression in E. coli” value is on record as “not soluble”. To “MEKQNIAVILARQNSKGLPLKNLRKMNGISLLGHTINAAISSKCFDRIIVSTDGGLIAEEAKNFGVEVVLRPAELASDTASSISGVIHALETIGSNSGTVTLLQPTSPLRTGAHIREAFSLFDEKIKGSVVSACPMEHHPLKTLLQINNGEYAPMRHLSDLEQPRQQLPQAFRPNGAIYINDTASLIANNCFFIAPTKLYIMSHQDSIDIDTELDLQQAENILNHKES” belongs “soluble”. With “MEKSGGRIVMDEIRSFEKAHLFDLGHPLLNRIADSFVKAAGVSFDSNNVGPPSEITGNKKHRFPNLRGESSKSLDALVKNTGKESLQWGLAAGLYSGITYGMTEVRGGAHDWRNSAVAGALTGAAMAMTTSERTSHEQVVQSALTGAAISTAANLLSSVF” the entry was “soluble”. To “MEKVAFIGLGAMGYPMAGHLARRFPTLVWNRTFEKALRHQEEFGSEAVPLERVAEARVIFTCLPTTREVYEVAEALYPYLREGTYWVDATSGEPEASRRLAERLREKGVTYLDAPVSGGTSGAEAGTLTVMLGGPEEAVERVRPFLAYAKKVVHVGPVGAGHAVKAINNALLAVNLWAAGEGLLALVKQGVSAEKALEVINASSGRSNATENLIPQRVLTRAFPKTFALGLLVKDLGIAMGVLDGEKAPSPLLRLAREVYEMAKRELGPDADHVEALRLLERWGGVEIR” belongs “soluble”; to “MELATTQSVLMQIQPTIQRFARMLASVLQLEVEIVDENLCRVAGTGAYGKFLGRQLSGNSRLLRHVLETKTEKVVTQSRFDPLCEGCDSKENCREKAFLGTPVILQDRCVGVISLIAVTHEQQEHISDNLREFSDYVRHISTIFVSKLLEDQGPGDNISKIFATMIDNMDQGVLVVDDENRVQFVNQTALKTLGVVQNNIIGKPIRFRPLTFESNFTHGHMQHIVSWDDKSELIIGQLHNIQGRQLFLMAFHQSHTSFSVANAPDEPHIEQLVGECRVMRQLKRLISRIAPSPSSVMVVGESGTGKEVVARAIHKLSGRRNKPFIAINCAAIPEQLLESELFGYVKGAFTGASANGKTGLIQAANTGTLFLDEIGDMPLMLQAKLLRAIEAREILPIGASSPIQVDIRIISATNQNLAQFIAEGKFREDLFYRLNVIPITLPPLRERQEDIELLVHYFLHLHTRRLGSVYPGIAPDVVEILRKHRWPGNLRELSNLMEYLVNVVPSGEVIDSTLLPPNLLNNGTTEQSDVTEVSEAHLSLDDAGGTALEEMEKQMIREALSRHNSKKQVADELGIGIATLYRKIKKYELLNT”, “not soluble”. “MELFTFIPYFLLLEREESDRNTLANANTEFIREVYELQRVEKDVTLVFFQLQYLSCKLVILREHYRTAQKEHLPCYAYIIGTLEYLKGLLDRCRFIHKCGSAIAPACLPTTEGDPPVCWTAEVICLMELLYACHELKMFNGGEVTLGRVVEYVCHVLGVNVKNASSYYARMRRRKAGDRTYFIDRLREVLLKRMEDDDEGHRRRNR”: the “soluble on expression in E. coli” value is reported as “not soluble”. With “MELKILVTGGNVFVPGRLNAHFSTVVYLEHKDRRIIIDPGNLSSMDELEEKFSELGISPDDITDVLFTHVHLDHIFNSVLFENATFYVHEVYKTKNYLSFGTIVGRIYSKVISSWKNVVLLKGEESLFDEKVKVFHTPWHAREHLSFLLDTENAGRVLITGDITPNRLSYYDIIKGYGSVQVKNFLDRVGRIDLLVFPHDAPLKPEVKK” the entry was “not soluble”; with “MELNMLYLFTASNDSAIKNLEATIEKIYPISTCLADLDADTVTKLKDNELHENVCMWGATPGSSNVDRWEKLKEGDRILAYSKGEFKFFGTIFAKTHNPDVARKI”, “not soluble”. With “MELPILPTSVIGSYPKPRWLLRMYRLRDLGKIPEEDFKEAVKDASVSVLREHERAGVDIPWDGEMWRTEMTEHFTAKIGGFKFYGPVRVWGNAYFNKAAAVDKLEYKEPLVLEEFLWVKKNTTREVVKIPITGPYTIAEWSFNEYYPDKESFIMDLAKIINKELKMLENHGALYIQLDEPAMLNHPDEVPLAVEAINKAVKGIKIKVGLHVCYSNYYLLADYFDEIRVTQFALEFANRQFRDMDFLKKLSNKELGFGVVDVHNPRIESVEEIVKAIKKVFEYVEPELLYINPDCGMKLLDRNIAYNKLVNMVKATELVRKELEREGKKTTEFRTLKDILEHHHHHH” the entry was “not soluble”.

As for “MELQKALKEVREQKIAPVYLLIGTELYLTELFKTTLMKELLTEEDDQFNFFSFDMEETPLSAAIAEAETIPFFGDYRLVFVENPYFLTAERKTNGVEHDVNLLLNYLESPSPTTVLVFMASYEKLDERKKITKALKKNATVVDVNPMDEKAIRQYISQTIESEGYTIRSDAFDLLLQLTDLNLSKIMGELQKLYLYALETKTITRGAVQELVPKSLEHNVFDLTNEVLSGNSEKAVQLYEDLLLQGEETIKLNAILLNQIRLFLQTKILAKMGYQQANIADTLKVHPYRVKLALQQVRRFELSRLERLYDELVENDYRMKTGQMDKELLFQLFILKLTAQAK”, the “soluble on expression in E. coli” value is “not soluble”.

In the case of “MELSALTAVSPVDGRYGSKTIALREIFSEYGLLKYRTIVEIRWLQKLAATAEIAEVPAFSAEANQFLDDLAANFSEADALRIKEIERTTNHDVKAVEYFLKEKVADVPELHAVNEFFHFACTSEDINNTSHALMLKEARETVILPEIRNLIDAIKALAVEYRDIPLLSRTHGQPASPSTMGKEMANVAYRMERQYKQIENVEILAKINGAVGNYNAHLSAYPELDWHKFSEEFITESLGVTWNPYTTQIEPHDYIAELFDAVARFNTILIDFDRDVWGYIALGHFKQKTIAGEIGSSTMPHKVNPIDFENSEGNLGLANAVFGHLAQKLPISRWQRDLTDSTVLRNLGVGVGYAIIAYTSTLKGISKLEVNRDALLAELDKNWEVLAEPVQTVMRRYGIEKPYEKLKELTRGKRVDGEAMRNFIDGLELPEHEKARLKEMTPANYIGQAIELTDKL”, the “soluble on expression in E. coli” value is on record as “not soluble”. Take “MELTVKDIQTWLDNYSKVIEEKKDYLSELDTPIGDGDHGNNMARGMAEYKIAFDKKVPTTITETFKVLSMALISKVGGASGPLYGTAFMNMTKATKDLETISSPEQLKEIVQQGLAGIQMRGKAEPGDKTMVDVWAPVAEVIGTEQFNEEKIEQFAEATKDWVAKKGRASYLGERAIGHIDPGAASSALLFEELVKVINQ”: the “soluble on expression in E. coli” value was “not soluble”.

For the sequence “MELVSVAALAENRVIGRDGELPWPSIPADKKQYRSRVADDPVVLGRTTFESMRDDLPGSAQIVMSRSERSFSVDTAHRAASVEEAVDIAASLDAETAYVIGGAAIYALFQPHLDRMVLSRVPGEYEGDTYYPEWDAAEWELDAETDHEGFTLQEWVRSASSR”, the “soluble on expression in E. coli” value was “soluble”. To “MELYETSPYFYQEPRFYDGENYLPVHLQGFEPPGYERTELTLSPEAPGPLEDKGLGTPEHCPGQCLPWACKVCKRKSVSVDRRRAATLREKRRLKKVNEAFEALKRSTLLNPNQRLPKVEILRSAIQYIERLQALLSSLNQEERDLRYRGGGGPQPGVPSECSSHSASCSPEWGSALEFSANPGDHLLTADPTDAHNLHSLTSIVDSITVEDVSVAFPDETMPN” belongs “soluble”; to “MEMGMKRIANECFFAWVESEIKSGRSVKFRVKGNSMMPLLRNGKDEVVVGPYDKEELKLFDVILFRQTDRYVLHRIIQKRDSRYLMQGDGVCRFYEECEDTDIIGVVRKVCRPSGKKIETDSMCWRLESRLWLGLGGCRGMVLRVLNRLGCCLLF”, “not soluble”.

Turning to “MEMTMEQEPLNGWPQPYRLLDAQPYWDALQDEKLTYQQCVACRQSVWPAHSRCPHCSSDQLVWQASSGRATVYSFSTVTRGPTPVWASIVPYTVGFVEMDEGYFLFTQIEGPPGSIGVGDKVQVRFVRRGAQILPVFVSADLPA”, the “soluble on expression in E. coli” value is on record as “not soluble”. For “MEMTNAQRLILSNQYKMMTMLDPTNAERYRRLQTIIERGYGLQMRELDREFGELTEETCRTIIDIMEMYHALHVSWTNLKDTQAIDERRVTFLGFDAATEARYLGYVRFMVNIEGRYTHFDAGTHGFNAQTPMWEKYQRMLNVWHACPRQYHLSANEINQIINA”, the “soluble on expression in E. coli” value is recorded as “not soluble”.

Source of the values: the DeepSol protein solubility set.
